The labels stand for the following.
B1: Pistol ribozyme (parent)
chain: GGGUCGUUGUUCCAUAAUCGCGUGGAUAUGGCACGCAAGUUUCUACCGGGCACCGUAAAUGUCCGACUGGAGCCGUUCGGGCGGCUAUAAACAGACCUCAGGCCCGAAGCGUGGCGGCACCUGCCGCCGGUGGUAAAAAAGAUCGGAAGAGCACACGUCU

The source of these data is the RNAGym collection of RNA variant scans (doi:10.1021/acssynbio.7b00057).

The variants in this data set derive from B1. Put plainly: aptazyme ON/OFF ratio, guanine; higher = stronger switching; co-transcriptional cleavage with and without guanine.
Regarding U8A G9A U10A U11A C12A, the “aptazyme ON/OFF ratio” value came out at 1.24.
As for U8A G9A U10A U11A C12G, the “aptazyme ON/OFF ratio” value worked out at 1.24.
U8A G9A U10A U11A C12U: the “aptazyme ON/OFF ratio” value amounted to 1.13.
Take U7G U10A U11G C12A: the “aptazyme ON/OFF ratio” value was 1.13.
For the variant U7G U10A U11G C12G, the “aptazyme ON/OFF ratio” value turned out to be 1.21.
For the variant U7G U10A U11G C12U, the “aptazyme ON/OFF ratio” value was found to be 1.32.
For the variant U7G U10A U11G C12G C13G, the “aptazyme ON/OFF ratio” value came to 1.26.
For U7G U10A U11G C12G C13U the value was 1.63.
The same measure for U7G U10A U11G C12G C13A: 1.18; for U7G U10C U11G C12G C13G: 1.07.
For U7G U10C U11G C12G C13U the value was 1.05; for U7G U10C U11G C12G C13A, 1.11; for U7G U10C C12U C13A, 1.04.
With U7G U10C C12U C13U, the “aptazyme ON/OFF ratio” value was 1.07.
With U7G U10C C12U C13G, the “aptazyme ON/OFF ratio” value is 1.06.
As to U7G U10A U11C, the “aptazyme ON/OFF ratio” value was determined as 1.
For U7G U10A U11A the value was 2.39; for U7G U10A U11G, 1.71; for U8A G9A C12U C13A, 1.19.
For U8A G9A C12U C13G the value was 1.17; for U8A G9A C12U C13U, 1.11.
The same measure for U7G U10G U11G C12G C13G: 1.11; for U7G U10G U11G C12G C13U: 1.29; for U7G U10G U11G C12G C13A: 1.1.
As to U7G U10C C12G, the “aptazyme ON/OFF ratio” value was 1.26.
For U7G U10C C12U the value was 1.2; for U7G U10C C12A, 1.12; for U7G U8G U11C C13G, 1.27.
For U7G U8G U11C C13U the value was 1.25; for U7G U8G U11C C13A, 1.41.
For the variant U7G U11A C12A C13A, the “aptazyme ON/OFF ratio” value turned out to be 1.17.
As to U7G U11A C12A C13U, the “aptazyme ON/OFF ratio” value stood at 1.22.
For U7G U11A C12A C13G the value was 1.14.
For U7G U10C U11G C12U C13G the value was 1.13; for U7G U10C U11G C12U C13U, 1.18; for U7G U10C U11G C12U C13A, 1.11.
Regarding U7G U10C U11G C12A C13G, the “aptazyme ON/OFF ratio” value came out at 1.07.
For U7G U10C U11G C12A C13U, the “aptazyme ON/OFF ratio” value stood at 1.11.
For U7G U10C U11G C12A C13A the value was 1.11; for U7G U10G U11A C12U C13U, 1.08.
The same measure for U7G U10G U11A C12U C13A: 1.1.
For U7G U10G U11A C12U C13G, the “aptazyme ON/OFF ratio” value stood at 1.16.
As to U7G U10G U11A, the “aptazyme ON/OFF ratio” value is 1.21.
U7G U10G U11G: the “aptazyme ON/OFF ratio” value turned out to be 1.53.
For U7G U10G U11C the value was 1.07; for U8A C12U, 1.62; for U8A C12G, 1.46.
Consider U8A C12A, for which the “aptazyme ON/OFF ratio” value turned out to be 1.3.
For U7G U10G U11A C12G the value was 1.08; for U7G U10G U11A C12A, 1.14; for U7G U10G U11A C12U, 1.1.
The same measure for U8A G9A: 1.91; for U7G U10G U11C C12A C13G: 1.12; for U7G U10G U11C C12A C13U: 1.17.
The same measure for U7G U10G U11C C12A C13A: 1.11.
As for U7G U8G U11G C13A, the “aptazyme ON/OFF ratio” value is 1.21.
U7G U8G U11G C13G: the “aptazyme ON/OFF ratio” value is 1.39.
The same measure for U7G U8G U11G C13U: 1.28; for U7G U10G U11A C12G C13U: 1.1; for U7G U10G U11A C12G C13A: 1.11.
As to U7G U10G U11A C12G C13G, the “aptazyme ON/OFF ratio” value came out at 1.13.
As to U7G U10G U11C C12G, the “aptazyme ON/OFF ratio” value turned out to be 1.25.
As for U7G U10G U11C C12A, the “aptazyme ON/OFF ratio” value stood at 1.25.
With U7G U10G U11C C12U, the “aptazyme ON/OFF ratio” value is 1.17.
Take U7G U10A U11G C12A C13A: the “aptazyme ON/OFF ratio” value is 1.06.
The same measure for U7G U10A U11G C12A C13U: 1.11.
For U7G U10A U11G C12A C13G the value was 1.09; for U7G U10G U11G C12U C13U, 1.36.
For U7G U10G U11G C12U C13A the value was 1.13; for U7G U10G U11G C12U C13G, 1.17.
With U7G U10G U11G C12A, the “aptazyme ON/OFF ratio” value amounted to 1.08.
The same measure for U7G U10G U11G C12G: 1.15; for U7G U10G U11G C12U: 1.24.
With U8A G9A U10A C12G, the “aptazyme ON/OFF ratio” value came out at 1.17.
For U8A G9A U10A C12U the value was 1.24; for U8A G9A U10A C12A, 1.43.
In the case of U7G U10A U11C C12U C13U, the “aptazyme ON/OFF ratio” value was 1.08.
As to U7G U10A U11C C12U C13A, the “aptazyme ON/OFF ratio” value was determined as 1.12.
For U7G U10A U11C C12U C13G the value was 1.05; for U7G U11A C12U, 1.68.
Consider U7G U11A C12A, for which the “aptazyme ON/OFF ratio” value worked out at 1.16.
For U7G U11A C12G the value was 1.18.
For U7G U10G U11C C12G C13U the value was 1.35.
For U7G U10G U11C C12G C13A the value was 1.14; for U7G U10G U11C C12G C13G, 1.07; for U8A G9A U10A C13A, 1.26.
Regarding U8A G9A U10A C13U, the “aptazyme ON/OFF ratio” value was 1.2.
For U8A G9A U10A C13G the value was 1.1; for U7G U10A C12A, 1.21; for U7G U10A C12G, 1.22.
As to U7G U10A C12U, the “aptazyme ON/OFF ratio” value was found to be 1.16.
The same measure for U8A G9A U10A U11A: 1.35; for U8A G9A U10A U11A C12G C13U: 1.16; for U8A G9A U10A U11A C12G C13A: 1.29.
On to U8A G9A U10A U11A C12G C13G, for which the “aptazyme ON/OFF ratio” value came to 1.18.
For U7G U10A U11C C12G C13G the value was 1.03; for U7G U10A U11C C12G C13A, 1.1; for U7G U10A U11C C12G C13U, 1.11.
For U7G U11G C12A C13A the value was 1.13.
Consider U7G U11G C12A C13G, for which the “aptazyme ON/OFF ratio” value turned out to be 1.11.
The same measure for U7G U11G C12A C13U: 1.14; for U7G U10G C12A: 1.22.
For U7G U10G C12G, the “aptazyme ON/OFF ratio” value was determined as 1.09.
As to U7G U10G C12U, the “aptazyme ON/OFF ratio” value turned out to be 1.39.
U7G U10A U11A C12G: the “aptazyme ON/OFF ratio” value is 1.1.
For the variant U7G U10A U11A C12U, the “aptazyme ON/OFF ratio” value stood at 1.16.
Take U7G U10A U11A C12A: the “aptazyme ON/OFF ratio” value is 1.07.
For the variant U7G U11C C12U C13G, the “aptazyme ON/OFF ratio” value worked out at 1.1.
For U7G U11C C12U C13U the value was 1.19; for U7G U11C C12U C13A, 1.13; for U7G U10A U11A C12U C13G, 1.13.
Turning to U7G U10A U11A C12U C13U, the “aptazyme ON/OFF ratio” value was found to be 1.16.
Regarding U7G U10A U11A C12U C13A, the “aptazyme ON/OFF ratio” value was found to be 1.09.
U7G U10A C12A C13G: the “aptazyme ON/OFF ratio” value is 1.12.
For U7G U10A C12A C13A the value was 1.21.
The same measure for U7G U10A C12A C13U: 1.18.
For U8A G9A U10A U11A C12U C13A the value was 1.37.
On to U8A G9A U10A U11A C12U C13G, for which the “aptazyme ON/OFF ratio” value turned out to be 1.1.
The same measure for U8A G9A U10A U11A C12U C13U: 1.21.
Consider U7G U11C, for which the “aptazyme ON/OFF ratio” value came to 1.11.
For U7G U11A the value was 2.37.
For U7G U11G the value was 1.32; for U7G U10A U11A C12A C13U, 1.07; for U7G U10A U11A C12A C13G, 1.11.
Take U7G U10A U11A C12A C13A: the “aptazyme ON/OFF ratio” value came to 1.14.
Regarding U8A, the “aptazyme ON/OFF ratio” value is 2.82.
Take U7G U8G U11C: the “aptazyme ON/OFF ratio” value is 1.35.
For U7G U8G U11G the value was 2.52.
For U7G U8G U11C C12A C13A the value was 1.42; for U7G U8G U11C C12A C13U, 1.26; for U7G U8G U11C C12A C13G, 1.15.
For U8A C12G C13U the value was 1.24.
Turning to U8A C12G C13G, the “aptazyme ON/OFF ratio” value was determined as 1.18.
U8A C12G C13A: the “aptazyme ON/OFF ratio” value was 1.48.
The same measure for U7G U8G U11G C12U: 1.25; for U7G U8G U11G C12A: 1.42.
U7G U8G U11G C12G: the “aptazyme ON/OFF ratio” value came out at 1.28.
U8A G9A C12U: the “aptazyme ON/OFF ratio” value is 1.33.
Turning to U8A G9A C12A, the “aptazyme ON/OFF ratio” value came to 1.34.
For U8A G9A C12G the value was 1.41; for U7G U11A C12U C13A, 1.19; for U7G U11A C12U C13U, 1.28.
U7G U11A C12U C13G: the “aptazyme ON/OFF ratio” value is 1.14.
As to U7G U8G U11G C12U C13A, the “aptazyme ON/OFF ratio” value amounted to 1.5.
For U7G U8G U11G C12U C13U the value was 1.37; for U7G U8G U11G C12U C13G, 1.26.
For U7G U10C U11G C12A, the “aptazyme ON/OFF ratio” value was 1.12.
The same measure for U7G U10C U11G C12U: 1.2.
For the variant U7G U10C U11G C12G, the “aptazyme ON/OFF ratio” value is 1.15.
The same measure for U7G U10G U11G C13U: 1.2; for U7G U10G U11G C13G: 1.18.
On to U7G U10G U11G C13A, for which the “aptazyme ON/OFF ratio” value was 1.16.
The same measure for U7G U8G U11G C12A C13G: 1.21; for U7G U8G U11G C12A C13A: 1.24; for U7G U8G U11G C12A C13U: 1.35.
For U7G U8G U11G C12G C13A the value was 1.18.
On to U7G U8G U11G C12G C13U, for which the “aptazyme ON/OFF ratio” value turned out to be 1.09.
The same measure for U7G U8G U11G C12G C13G: 1.21; for U7G U11A C13U: 1.36.
Take U7G U11A C13A: the “aptazyme ON/OFF ratio” value was found to be 1.16.
The same measure for U7G U11A C13G: 1.08; for U7G U11C C13A: 1.03.
For U7G U11C C13G the value was 1.08; for U7G U11C C13U, 1.07; for U7G U10C U11C C12U C13G, 1.09.
For U7G U10C U11C C12U C13A the value was 1.06.
Take U7G U10C U11C C12U C13U: the “aptazyme ON/OFF ratio” value was found to be 1.09.
